Reference: article PMC6226434

T1: full-length human ETA receptor construct with an internal FLAG epitope tag (human) (UniProt P25101)
T1 sequence: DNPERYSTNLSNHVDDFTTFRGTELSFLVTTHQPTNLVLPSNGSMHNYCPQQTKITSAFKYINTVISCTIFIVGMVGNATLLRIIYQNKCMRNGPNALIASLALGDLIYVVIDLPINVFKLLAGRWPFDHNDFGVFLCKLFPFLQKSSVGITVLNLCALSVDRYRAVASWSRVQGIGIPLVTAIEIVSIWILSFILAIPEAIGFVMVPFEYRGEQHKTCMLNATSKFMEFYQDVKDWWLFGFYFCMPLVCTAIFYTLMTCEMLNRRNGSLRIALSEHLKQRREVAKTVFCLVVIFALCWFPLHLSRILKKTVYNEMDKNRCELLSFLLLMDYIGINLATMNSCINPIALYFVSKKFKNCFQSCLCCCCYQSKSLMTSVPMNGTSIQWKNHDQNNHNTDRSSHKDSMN

T2: ETA-SmBiT construct (human ETA receptor with SmBiT at the C-terminus) (human) (UniProt P25101)
T2 sequence: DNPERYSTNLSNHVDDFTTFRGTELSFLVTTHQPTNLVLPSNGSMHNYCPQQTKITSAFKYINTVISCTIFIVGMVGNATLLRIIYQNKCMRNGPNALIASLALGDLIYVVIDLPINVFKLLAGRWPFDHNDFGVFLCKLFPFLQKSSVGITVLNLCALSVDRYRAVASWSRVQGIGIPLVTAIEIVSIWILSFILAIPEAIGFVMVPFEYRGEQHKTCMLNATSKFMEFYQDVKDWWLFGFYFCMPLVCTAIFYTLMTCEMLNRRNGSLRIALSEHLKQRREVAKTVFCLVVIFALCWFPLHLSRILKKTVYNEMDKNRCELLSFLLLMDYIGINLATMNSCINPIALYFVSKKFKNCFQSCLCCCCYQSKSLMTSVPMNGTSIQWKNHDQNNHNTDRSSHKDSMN


What was measured:
[1] = target: human ETB receptor, wild type, codon-optimized construct with an internal FLAG epitope tag (human) (UniProt P24530)
[2] = target: human ETB receptor L252H I254T double mutant (human) (UniProt P24530)
[3] = target: human ETB receptor, wild type, codon-optimized construct with an internal FLAG epitope tag (human) (UniProt P24530); remark: listed apart in the source
[4] = target: thermostabilized human ETB receptor (ETB-Y5), construct with an internal FLAG epitope tag (human) (UniProt P24530)
[5] = target: ETB-SmBiT construct (human ETB receptor with SmBiT at the C-terminus) (human) (UniProt P24530)
[6] = target: ETB-Y5 with SmBiT at the C-terminus (thermostabilized human ETB receptor) (human) (UniProt P24530)
[7] = target: T1, full-length human ETA receptor construct with an internal FLAG epitope tag (human)
[8] = target: T2, ETA-SmBiT construct (human ETA receptor with SmBiT at the C-terminus) (human)

Row | AP-TGFα release (TGFα shedding assay), EC50; experiment with the double mutant [1] | AP-TGFα release (TGFα shedding assay), EC50 [2] | AP-TGFα release (TGFα shedding assay), EC50 [3] | AP-TGFα release (TGFα shedding assay), Emax relative to ET-1 [3] | AP-TGFα release (TGFα shedding assay), EC50 [4] | AP-TGFα release (TGFα shedding assay), Emax relative to ET-1 [4] | β-arrestin recruitment (NanoBiT, receptor-SmBiT with m12), EC50 [5] | β-arrestin recruitment (NanoBiT, receptor-SmBiT with m12), Emax relative to ET-1 [5] | β-arrestin recruitment (NanoBiT, receptor-SmBiT with m12), EC50 [6] | β-arrestin recruitment (NanoBiT, receptor-SmBiT with m12), Emax relative to ET-1 [6] | AP-TGFα release (TGFα shedding assay), EC50 [7] | AP-TGFα release (TGFα shedding assay), Emax relative to ET-1 [7] | β-arrestin recruitment (NanoBiT, receptor-SmBiT with m12), EC50 [8] | β-arrestin recruitment (NanoBiT, receptor-SmBiT with m12), Emax relative to ET-1 [8] | Molecule
1 | 0.14 nM | 0.32 nM | 0.11 nM | 87.6% | 0.92 nM | 83.6% | 3.1 nM | 87.3% | 15.1 nM | 85.4% |  |  |  |  | IRL1620 (N-Suc-[E9, A11, 15] ET-1(8-21)) (peptide)
2 |  |  | 0.13 nM | 100% | 0.077 nM | 101% | 3.3 nM | 105% | 3.5 nM | 105% | 0.65 nM | 101% | 10.8 nM | 81.1% | CTCFTYKDKECVYYCHLDIIW [endothelin-3]
